Assay results: publication PMC4881898, “CD14 Is a Co-Receptor for TLR4 in the S100A9-Induced Pro-Inflammatory Response in Monocytes” (PLoS ONE, 2016)

Molecular target: T1, recombinant human CD14 (human, UniProt P08571 20-345)
T1 construct: CD14, human, recombinant soluble protein from CHO cells; Check this against the vendor data sheet; source: bought: R&D Systems (cat no 383-CD-050/CF), derived from CHO cells
T1 sequence (looked up): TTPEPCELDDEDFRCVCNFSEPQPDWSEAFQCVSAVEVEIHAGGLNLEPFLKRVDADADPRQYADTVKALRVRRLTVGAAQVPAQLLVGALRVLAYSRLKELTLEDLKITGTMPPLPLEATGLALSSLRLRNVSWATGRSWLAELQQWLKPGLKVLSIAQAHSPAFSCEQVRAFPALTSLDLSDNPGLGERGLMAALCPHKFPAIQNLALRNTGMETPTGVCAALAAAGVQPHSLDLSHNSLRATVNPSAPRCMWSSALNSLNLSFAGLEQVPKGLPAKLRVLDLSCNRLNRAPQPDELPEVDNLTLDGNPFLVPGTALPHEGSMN
Test: SPR; Biacore 3000; S100A8 and S100A9 immobilised in separate flow cells on a CM5 chip by amine coupling, to the same level; CD14 injected at 50 to 800 nM for 2 min at 30 ul/min in HBS-P (10 mM HEPES, 0.15 M NaCl, pH 7.4, 0.005% P20) with 1 mM Ca2+ and 20 uM Zn2+; regeneration with 3 mM EDTA; sensorgrams fit to a 1:1 model
Conditions: both partners purified

Kd: 100 to 200 nM
B1: recombinant human S100A9 (natural protein, UniProt P06702 1-114, looked up)
chain: MTCKMSQLERNIETIINTFHQYSVKLGHPDTLNQGEFKELVRKDLQNFLKKENKNEKVIEHIMEDLDTNADKQLSFEEFIMLMARLTWASHEKMHEGDEGPGHHHKPGLGEGTP
notes: S100A9, human, recombinant; The discussion says the recombinant huS100A9 was produced in E. coli; Amine-coupled to the CM5 chip in the SPR experiment; also called huS100A9; source: recombinant, produced at Active Biotech AB, Lund, Sweden
